Measurements published in PMC12174363, “Multiple glutathione-S-transferases detoxify diverse glucosinolate-based defenses of Brassicales plants in a generalist lepidopteran herbivore (Spodoptera littoralis)” (Communications Biology, 2025).

Legend:
purified protein [1] = substrate: S=C=NCc1ccccc1; test: purified protein; type: biochemical, Spodoptera littoralis; conditions: 4 mM GSH (saturating), 100 mM potassium phosphate pH 6.5, 25 °C, 2.4% acetonitrile
purified protein [2] = substrate: C=CCN=C=S; test: purified protein; type: biochemical, Spodoptera littoralis; conditions: 4 mM GSH (saturating), 100 mM potassium phosphate pH 6.5, 25 °C, 2.4% acetonitrile

Row | Protein | Km (purified protein [1]) | Vmax (purified protein [1]) | kcat (purified protein [1]) | kcat/Km (purified protein [1]) | Km (purified protein [2]) | Vmax (purified protein [2]) | kcat (purified protein [2]) | kcat/Km (purified protein [2])
1 | GSTE14 (GSTe14) (Spodoptera littoralis) (protein, cytosolic epsilon class) MGVKLYVMDFSPPSRACMLTCEIFGIPFEKIPVDLFKGEHLAPNYLQKNPLHTIPVLEDGDLILYDSHAIMAYLADTYGKDESWYPKDVKKRALVNQKLFFNTAVIYRRLRNITYYVFQRGRKTLEQDWLDDIAEGYGFLEAFLSKTKYIAGDHITIADIAILSHLTNLEYILPIDAKKYPKTSAWLEDFKATPYAKKHNEEGAKALNDLLKKFLTS | 185.37 ± 89.77 µM | 47.3 µmol/min/mg | 19.8 ± 3.35 s⁻¹ | 107000 ± 37300 M⁻¹ s⁻¹ | 124.10 ± 15.66 µM | 89.4 µmol/min/mg | 37.4 ± 1.85 s⁻¹ | 302000 ± 14900 M⁻¹ s⁻¹
2 | GSTS6 (GSTs6) (Spodoptera littoralis) (protein, cytosolic sigma class) MPKKLSYFNLNGLAEPIRYILHYTNQEFEDVRYDVYSWPDPKIKASLPYGQFPVYEEDGRVLTQSLAITKYVARGTDLVPTDPWDNAFIESVIFSIMDYWKNVVPTVREPDPAKYTELRNEIIEKNIPYYFSRFNKHLEDNGGFLNGKLSWGDFVFCGVIEASDMFLGIELSKDYPAVGSLVQHIRNLPGVKEYVKSIGPYTIDLARFKYKK | 98.24 ± 21.15 µM | 52.7 µmol/min/mg | 21.6 ± 1.46 s⁻¹ | 220000 ± 14900 M⁻¹ s⁻¹ | 567.11 ± 131.85 µM | 39.3 µmol/min/mg | 16.1 ± 2.28 s⁻¹ | 28400 ± 4020 M⁻¹ s⁻¹
